Laboratory results reported in paper PMC6241121, “hnRNPA2 mediated acetylation reduces telomere length in response to mitochondrial dysfunction”.

Target: hnRNPA2 WT (human, UniProt P22626-2 1-341)
Test: EMSA; not given in the material
Details: protein: recombinant; tags: N-terminal 6xHis (pET28a)

hnRNPA2 WT, sequence (P22626 other isoform, or with tags, fused parts or gaps): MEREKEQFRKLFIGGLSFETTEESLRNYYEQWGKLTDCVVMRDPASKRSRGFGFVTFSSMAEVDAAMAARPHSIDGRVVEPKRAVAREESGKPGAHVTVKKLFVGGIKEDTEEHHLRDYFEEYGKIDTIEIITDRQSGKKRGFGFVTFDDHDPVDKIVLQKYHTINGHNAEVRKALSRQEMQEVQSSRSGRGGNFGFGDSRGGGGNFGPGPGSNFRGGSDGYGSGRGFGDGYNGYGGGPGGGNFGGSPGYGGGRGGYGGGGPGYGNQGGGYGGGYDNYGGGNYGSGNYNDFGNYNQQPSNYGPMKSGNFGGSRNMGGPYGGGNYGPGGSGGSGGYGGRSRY

B1: single-stranded telomeric DNA probe (ssDNA)
DNA: TTAGGGTTAGGGTTAGGGTTAGGGTTAGGG
B1: binds.
